Here are results for 2 compounds from patent US20230390406A1, “Star Polymer Drug Conjugates” (Vaccitech North America, Inc., priority 2020, published 2023).

The conditions of data set [1]: small molecule, not polymer-bound; cited from earlier work.
For data set [2], the system named is Compound AJ, Ac-A′SK(Ac)VB-AMC.
Data set [3] deals with Compound AM, Ac-A′VnL-AMC.
Data set [4] has as its system Compound AI, Ac-A′SPVB-AMC.
The subject of data set [5] is Compound AK, Ac-A′SK(Ac)SB-AMC.
The test system of data set [6] is Compound AN, Ac-A′SPVnL-AMC.
In data set [7] the test system is Compound AH, Ac-A′VB-AMC.
Data set [8] relates to Compound AP, Ac-A′SKSnL-AMC.
The subject of data set [9] is Compound AO, Ac-A′SK(Ac)SnL-AMC.
Data set [10] has as its system Compound AL, Ac-A′SKSB-AMC.

Take `CC(C)(CCN)C(=O)O` [DMBA, 4-amino-2,2-dimethylbutanoic acid]: the pKa entry in data set [1] is reported as “about 4.8”.
As for “cathepsin B (Sino Biological, protein human recombinant)”, the “cleavage of the peptide-AMC bond (HPLC, UV 350 nm, up to 6 hrs)” value in data set [2] was “Compound AJ was relatively stable in both matrices”; in data set [3], “found to be metabolized quickly in the presence of cathepsin B as well as mouse plasma”; in data set [4] it was “found to be metabolized quickly in the presence of cathepsin B as well as mouse plasma”; in [5], “showed significant stability in mouse plasma, but were readily cleaved in the presence of human cathepsin”; in data set [6], “found to be metabolized quickly in the presence of cathepsin B as well as mouse plasma”; in data set [7] it was “found to be metabolized quickly in the presence of cathepsin B as well as mouse plasma”. The “cleavage of the peptide-AMC bond (HPLC, UV 350 nm, up to 6 hrs)” value in data set [8] is listed as “showed significant stability in mouse plasma, but were readily cleaved in the presence of human cathepsin”; in data set [9], “showed significant stability in mouse plasma, but were readily cleaved in the presence of human cathepsin”; in data set [10], “showed significant stability in mouse plasma, but were readily cleaved in the presence of human cathepsin”.
